Experimental findings from paper PMC3151165 (2009) are described below.

T1: mu opioid receptor (Rattus norvegicus, UniProt P33535)
T1 chain: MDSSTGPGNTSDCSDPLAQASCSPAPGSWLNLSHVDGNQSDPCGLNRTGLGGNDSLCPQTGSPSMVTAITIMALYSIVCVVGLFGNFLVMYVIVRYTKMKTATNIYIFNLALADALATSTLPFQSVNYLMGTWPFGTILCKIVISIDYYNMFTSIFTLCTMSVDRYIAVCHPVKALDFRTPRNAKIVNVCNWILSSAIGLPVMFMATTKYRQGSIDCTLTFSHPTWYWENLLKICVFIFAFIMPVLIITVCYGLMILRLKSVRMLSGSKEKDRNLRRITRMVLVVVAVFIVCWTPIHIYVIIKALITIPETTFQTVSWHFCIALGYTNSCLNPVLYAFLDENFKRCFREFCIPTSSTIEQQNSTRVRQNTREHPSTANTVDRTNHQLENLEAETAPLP

T2: delta opioid receptor (Mus musculus, UniProt P32300)
T2 chain: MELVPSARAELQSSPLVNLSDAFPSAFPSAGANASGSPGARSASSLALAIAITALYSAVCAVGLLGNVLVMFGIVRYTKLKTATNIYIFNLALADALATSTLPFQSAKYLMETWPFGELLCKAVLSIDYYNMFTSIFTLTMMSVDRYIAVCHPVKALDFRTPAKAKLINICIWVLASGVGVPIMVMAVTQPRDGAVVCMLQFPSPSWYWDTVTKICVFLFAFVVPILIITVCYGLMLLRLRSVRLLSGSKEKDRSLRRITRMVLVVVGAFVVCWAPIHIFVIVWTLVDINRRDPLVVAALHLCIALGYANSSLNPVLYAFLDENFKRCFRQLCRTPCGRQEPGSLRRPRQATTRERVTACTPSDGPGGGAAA

B1: cyclo[Ala2(-CH=CH-)Ala5]Dyn A-(1-11)NH2 trans (2) (peptide)
chain: YAGFARRIRPK
modifications: trans -CH=CH- bridge between Ala2 and Ala5 side chains, C-terminal amide
B2: cyclo[Ala5(-CH=CH-)Ala8]Dyn A-(1-11)NH2 trans (6) (peptide)
chain: YGGFARRARPK
modifications: trans -CH=CH- bridge between Ala5 and Ala8 side chains, C-terminal amide
B3: cyclo[D-Ala2(-CH=CH-)Ala5]Dyn A-(1-11)NH2 cis (3) (peptide)
chain: YAGFARRIRPK
modifications: D-Ala2, cis -CH=CH- bridge between residues 2 and 5 side chains, C-terminal amide
B4: cyclo[Ala5(-CH=CH-)Ala8]Dyn A-(1-11)NH2 cis (5) (peptide)
chain: YGGFARRARPK
modifications: cis -CH=CH- bridge between Ala5 and Ala8 side chains, C-terminal amide
B5: cyclo[Ala2(-CH=CH-)Ala5]Dyn A-(1-11)NH2 cis (1) (peptide)
chain: YAGFARRIRPK
modifications: cis -CH=CH- bridge between Ala2 and Ala5 side chains, C-terminal amide

One assay addresses T1, mu opioid receptor. The assay can be described thus: radioligand competition. A general note: Displacement assays read how much labelled ligand stays bound in the presence of the test substance.
Consider B1, for which the Ki was determined as 180 nM.
Same read-out and setting: to B2 belongs 36 nM.
On the same count and under the same terms, to B3 belongs 2.33 nM.
Same read-out and setting: to B4 belongs 93 nM.
Take B5: the affinity, expressed as Ki, was 763 nM.

The target of a further assay is T2, delta opioid receptor. The assay can be described thus: radioligand competition.
As for B1, the affinity, expressed as Ki, was 1130 nM.
B3 yielded an inhibition constant Ki of 9.3 nM.
Same read-out and setting: with B5 the figure was 7670 nM.

Broadly, the Ki is the equilibrium dissociation constant of an inhibitor or competing ligand from its target. Low readings indicate a stronger hold on the target, high ones a looser hold on the target.
